Reference: publication PMC9897464 (2022)

T1: biotinylated Cg1735ΔCD (residues 20 to 386) (Corynebacterium glutamicum ATCC13032, biotin (EZ-Link NHS-PEG4-Biotin, 20 molar excess; sites not stated))
T1 chain: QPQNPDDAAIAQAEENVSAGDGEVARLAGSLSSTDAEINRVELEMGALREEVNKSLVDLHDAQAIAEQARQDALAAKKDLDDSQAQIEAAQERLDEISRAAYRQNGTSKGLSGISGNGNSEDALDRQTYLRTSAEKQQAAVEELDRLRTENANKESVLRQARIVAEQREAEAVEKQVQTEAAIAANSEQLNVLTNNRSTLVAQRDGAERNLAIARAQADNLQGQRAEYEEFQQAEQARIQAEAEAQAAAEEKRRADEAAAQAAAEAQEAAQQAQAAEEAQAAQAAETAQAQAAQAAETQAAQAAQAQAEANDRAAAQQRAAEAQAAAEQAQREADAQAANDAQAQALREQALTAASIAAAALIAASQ


Legend:
[1] = target: biotinylated Cg1735ΔCD (residues 20 to 386) (Corynebacterium glutamicum ATCC13032); experiment: BLI; biotinylated Cg1735ΔCD immobilised on streptavidin biosensors; Cg1735CD 20 to 0.3125 μM or Cg1604 200 to 3.125 μM; 25 °C; HEPES 25 mM pH 7.5, NaCl 150 mM, glycerol 5%, BSA 1 mg/mL; steady-state, one-site model; apparent Kd
[2] = target: T1, biotinylated Cg1735ΔCD (residues 20 to …); experiment: BLI
[3] = target: His_SUMO_Cg1735CC1 (CC1 domain, residues 20 to 238) (Corynebacterium glutamicum ATCC13032); experiment: BLI; His_SUMO_Cg1735CC1 immobilised on Ni-NTA biosensors; Cg1735CD 20 to 0.3125 μM; 25 °C; HEPES 25 mM pH 7.5, NaCl 150 mM, glycerol 5%, BSA 1 mg/mL; steady-state, one-site model; apparent Kd

Molecule	Kd [1] [nM]	Kd [2] [nM]	Kd [3] [nM]
Cg1604 (globular periplasmic domain, residues 36 to 295) (domain or fragment)	56000		
Cg1735CD (catalytic domain, residues 460 to 600) (domain or fragment) DRSAQIETVIARAMSQLGVQYAWGGGNANGPTLGIRDGGVADSYGDYNKVGFDCSGLTLYAFAGVGISLPHYTGYQYQHGTKVSPSEMQRGDLIFYGPGASQHVAIYLGDGQMIEAPNSGSVVKISPVRWSGMTESVVRLI		1900	1200
